Measurements reported in the supplement of paper PMC11908140.

B1: library; numbered along this chain (parent)
chain: MRKPRAAVGSGHRKQAASQEGRQKHAKNNSQAKPSACDGLARQPEEVVLQASVSSYHLFRDVAEVTAFRGSLLSWYDQEKRDLPWRRRAEDEMDLDRRAYAVWVSEVMLQQTQVATVINYYTGWMQKWPTLQDLASASLEEVNQLWAGLGYYSRGRRLQEGARKVVEELGGHMPRTAETLQQLLPGVGRYTAGAIASIAFGQATGVVDGNVARVLCRVRAIGADPSSTLVSQQLWGLAQQLVDPARPGDFNQAAMELGATVCTPQRPLCSQCPVESLCRARQRVEQEQLLASGSLSGSPDVEECAPNTGQCHLCLPPSEPWDQTLGVVNFPRKASRKPPREESSATCVLEQPGALGAQILLVQRPNSGLLAGLWEFPSVTWEPSEQLQRKALLQELQRWAGPLPATHLRHLGEVVHTFSHIKLTYQVYGLALEGQTPVTTVPPGARWLTQEEFHTAAVSTAMKKVFRVYQGQQPGTCMGSKRSQVSSPCSRKKPRMGQQVLDNFFRSHISTDAHSLNSAAQ

Variants of: B1
Experiment: 8OG:A repair function score (normalized; synonymous = 0, nonsense = -1) (normalized log-likelihood score); higher = more repair activity (WT-like)
Conditions: with 8OG:A DNA repair reporter (GFP) in HEK-293 MUTYH KO cells
Description: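 Saturation mutagenesis (NNN codon scan) of the MUTYH cDNA (521-aa nuclear isoform NM_001048174.1 / NP_001041639), stably expressed under doxycycline induction in HEK-293 MUTYH knockout cells. Cells were co-transfected with an 8OG:A-bearing GFP repair reporter plus mCherry and sorted 72 h later into GFP+ and GFP− bins, three replicates per tile. The Rosace log2 enrichment (GFP+ vs GFP−) was converted per tile to a normalized function score with synonymous variants centered at 0 and nonsense variants (codons 1-471) at -1; low-abundance variants were removed.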

Variant	8OG:A repair function score
MRKPRAAVGSGHRKQAASQEGRQKHAKNNSQAKPSACDGLARQPEEVVLQASVSSYHLFRDVAEVTAFRGSLLSWYDQEKRDLPWRRRAEDEMDLDRRAYAVWVSEVMLQQTQVATVINYYTGWMQKWPTLQDLASASLEEVNQLWAGLGYYSRGRRLQEGARKVVEELGGHMPRTAETLQQLLPGVGRYTAGAIASIAFGQATGVVDGNVARVLCRVRAIGADPSSTLVSQQLWGLAQQLVDPARPGDFNQAAMELGATVCTPQRPLCSQCPVESLCRARQRVEQEQLLASGSLSGSPDVEECAPNTGQCHLCLPPSEPWDQTLGVVNFPRKASRKPPREESSATCVLEQPGALGAQILLVQRPNSGLFAGLWEFPSVTWEPSEQLQRKALLQELQRWAGPLPATHLRHLGEVVHTFSHIKLTYQVYGLALEGQTPVTTVPPGARWLTQEEFHTAAVSTAMKKVFRVYQGQQPGTCMGSKRSQVSSPCSRKKPRMGQQVLDNFFRSHISTDAHSLNSAAQ [L370F]	-0.461
MRKPRAAVGSGHRKQAASQEGRQKHAKNNSQAKPSACDGLARQPEEVVLQASVSSYHLFRDVAEVTAFRGSLLSWYDQEKRDLPWRRRAEDEMDLDRRAYAVWVSEVMLQQTQVATVINYYTGWMQKWPTLQDLASASLEEVNQLWAGLGYYSRGRRLQEGARKVVEELGGHMPRTAETLQQLLPGVGRYTAGIIASIAFGQATGVVDGNVARVLCRVRAIGADPSSTLVSQQLWGLAQQLVDPARPGDFNQAAMELGATVCTPQRPLCSQCPVESLCRARQRVEQEQLLASGSLSGSPDVEECAPNTGQCHLCLPPSEPWDQTLGVVNFPRKASRKPPREESSATCVLEQPGALGAQILLVQRPNSGLLAGLWEFPSVTWEPSEQLQRKALLQELQRWAGPLPATHLRHLGEVVHTFSHIKLTYQVYGLALEGQTPVTTVPPGARWLTQEEFHTAAVSTAMKKVFRVYQGQQPGTCMGSKRSQVSSPCSRKKPRMGQQVLDNFFRSHISTDAHSLNSAAQ [A194I]	-0.291
MRKPRAAVGSGHRKQAASQEGRQKHAKNNSQAKPSACDGLARQPEEVVLQASVSSYHLFRDVAEVTAFRGSLLSWYDQEKRDLPWRRRAEDEMDLDRRAYAVWVSEVMLQQTQVATVINYYTGWMQKWPTLQDLASASLEEVNQLWAGLGYYSRGRRLQEGARKVVEELGGHMPRTAETLQQLLPGVGRYTAGAIASIAFGQATGVVDGNVARVLCRVRAIGADPSSTLVSQQLWGLAQQLVDPARPGDFNQAAMELGATVCTPQRPLCSQCPVESLCRARQRVEQEQLLASGSLSGSPDVEECAPNTGQCHLCLPPSEPWYQTLGVVNFPRKASRKPPREESSATCVLEQPGALGAQILLVQRPNSGLLAGLWEFPSVTWEPSEQLQRKALLQELQRWAGPLPATHLRHLGEVVHTFSHIKLTYQVYGLALEGQTPVTTVPPGARWLTQEEFHTAAVSTAMKKVFRVYQGQQPGTCMGSKRSQVSSPCSRKKPRMGQQVLDNFFRSHISTDAHSLNSAAQ [D322Y]	-0.0375
MRKPRAAVGSGHRKQAASQEGRQKHAKNNSQAKPSACDGLARQPEEVVLQASVSSYHLFRDVAEVTAFRGSLLSWYDQEKRDLPWRRRAEDEMDLDRRAYAVWVSEVMLQQTQVATVINYYTGWMQKWPTLQDLASASLEEVNQLWAGLGYYSRGRRLQEGARKVVEELGGHMPRTAETLQQLLPGVGRYTAGAIASIAFGQATGVVDGNVARVLCRVRAIGADPSSTLVSQQLWGLAQQLVDPARPGDFNQAAMELGATVCTPQRPLCSQCPVESLCRARQRVEQEQLLASGSLSGSPDVEECAPNTGQCHLCLPPSEPWDQTLGVVNFPRKASRKPPREESSATCVLEQPGAQGAQILLVQRPNSGLLAGLWEFPSVTWEPSEQLQRKALLQELQRWAGPLPATHLRHLGEVVHTFSHIKLTYQVYGLALEGQTPVTTVPPGARWLTQEEFHTAAVSTAMKKVFRVYQGQQPGTCMGSKRSQVSSPCSRKKPRMGQQVLDNFFRSHISTDAHSLNSAAQ [L355Q]	-0.061
MRKPRAAVGSGHRKQAASQEGRQKHAKNNSQAKPSACDGLARQPEEVVLQASVSSYHLFRDVAEVTAFRGSLLSWYDQEKRDLPWRRRAEDEMDLDRRAYAVWVSEVMLQQTQVATVINYYTGWMQKWPTLQDLASASLEEVNQLWAGLGYYSRGRRLQEGARKVVEELGGHMPRTAETLQQLLPGVGRYTAGAIASIAFGQATGVVDGNVARVLCRVRAIGADPSSTLVSQQLWGLAQQLVDPARPGDFNQAAMELGATVCTPIRPLCSQCPVESLCRARQRVEQEQLLASGSLSGSPDVEECAPNTGQCHLCLPPSEPWDQTLGVVNFPRKASRKPPREESSATCVLEQPGALGAQILLVQRPNSGLLAGLWEFPSVTWEPSEQLQRKALLQELQRWAGPLPATHLRHLGEVVHTFSHIKLTYQVYGLALEGQTPVTTVPPGARWLTQEEFHTAAVSTAMKKVFRVYQGQQPGTCMGSKRSQVSSPCSRKKPRMGQQVLDNFFRSHISTDAHSLNSAAQ [Q265I]	-0.0274
MRKPRAAVGSGHRKQAASQEGRQKHAKNNSQAKPSACDGLARQPEEVVLQASVSSYHLFRDVAEVTAFRGSLLSWYDQEKRDLPWRRRAEDEMDLDRRAYAVWVSEVMLQQTQVATVINYYTGWMQKWPTSQDLASASLEEVNQLWAGLGYYSRGRRLQEGARKVVEELGGHMPRTAETLQQLLPGVGRYTAGAIASIAFGQATGVVDGNVARVLCRVRAIGADPSSTLVSQQLWGLAQQLVDPARPGDFNQAAMELGATVCTPQRPLCSQCPVESLCRARQRVEQEQLLASGSLSGSPDVEECAPNTGQCHLCLPPSEPWDQTLGVVNFPRKASRKPPREESSATCVLEQPGALGAQILLVQRPNSGLLAGLWEFPSVTWEPSEQLQRKALLQELQRWAGPLPATHLRHLGEVVHTFSHIKLTYQVYGLALEGQTPVTTVPPGARWLTQEEFHTAAVSTAMKKVFRVYQGQQPGTCMGSKRSQVSSPCSRKKPRMGQQVLDNFFRSHISTDAHSLNSAAQ [L131S]	-0.315
